Laboratory results as given in patent US8541373B2, “BChE albumin fusions for the treatment of cocaine abuse” (priority 2009, dated 2013).

Tested on: cocaine
Test: Plasma cocaine, benzoylecgonine and ecgonine methyl ester (LC-MS) and cocaine PK after IV cocaine post-AlbuBChE
Assay type: in vivo, cynomolgus monkeys
Method: Blood was placed into K2EDTA blood collection tubes with esterase inhibitor diisopropylfluorophosphate (DFP). Tubes were inverted several times and placed on wet ice upon collection. Samples were centrifuged at 2-8° C. within 45 minutes of collection. The resultant plasma was recovered and a single 200 μL aliquot of plasma was placed into polypropylene tubes. Plasma samples were frozen over dry ice and stored at −75±15° C.
The following outline describes the LC-MS-based assay employed for the measurement of cocaine in plasma samples. Prior to MS analysis, plasma samples, calibration standards and controls were extracted using supported liquid extraction (SLE-ISOLUTE, Biotage). Twenty-five microliters of samples (25 μL) received 150 μl of 5% Ammonium hydroxide and 25 μl internal standard solution (Cocaine-d3). After mixing and transfer to SLE plate, samples were eluted with methylene chloride and evaporated to dryness. After resuspension in 50 μl of reconstitution solution—5% ACM in 10 mM ammonium acetate in water, 10 μl was injected onto Thermo Hypercarb column at 0.5 ml/min. Mobile phase was biphasic. Mass spectrophotometric detection was performed using Api 4000, APCI positive interface and Multiple Reaction Monitoring (MRM). Plasma concentrations of cocaine, benzoylecgonine and ecgonine methyl ester were determined using this assay.
When the data permits, pharmacokinetic parameter values for cocaine and its metabolites were determined using plasma concentration-times profiles for individual animals at all the study days of cocaine administration. […] Specifically the model for non-compartmental analysis with IV bolus input for cocaine and extravascular input for the metabolites.

[1] = 0.2 mg/kg IM, cocaine 1 mg/kg IV 120 hr post-AlbuBChE, 40 min after cocaine
[2] = 0.2 mg/kg IM, cocaine 1 mg/kg IV 120 hr post-AlbuBChE, 60 min after cocaine
[3] = 0.2 mg/kg IM, cocaine 1 mg/kg IV 240 hr post-AlbuBChE
[4] = 0.2 mg/kg IM, cocaine 1 mg/kg IV 240 hr post-AlbuBChE, 5 min after cocaine
[5] = 0.2 mg/kg IM, cocaine 1 mg/kg IV 240 hr post-AlbuBChE, 10 min after cocaine
[6] = 0.2 mg/kg IM, cocaine 1 mg/kg IV 240 hr post-AlbuBChE, 15 min after cocaine
[7] = 0.2 mg/kg IM, cocaine 1 mg/kg IV 240 hr post-AlbuBChE, 20 min after cocaine
[8] = 0.2 mg/kg IM, cocaine 1 mg/kg IV 240 hr post-AlbuBChE, 30 min after cocaine
[9] = 0.2 mg/kg IM, cocaine 1 mg/kg IV 240 hr post-AlbuBChE, 40 min after cocaine
[10] = 0.2 mg/kg IM, cocaine 1 mg/kg IV 240 hr post-AlbuBChE, 60 min after cocaine
[11] = 1 mg/kg IM, cocaine 1 mg/kg IV 2 hr post-AlbuBChE
[12] = 1 mg/kg IM, cocaine 1 mg/kg IV 2 hr post-AlbuBChE, 5 min after cocaine
[13] = 1 mg/kg IM, cocaine 1 mg/kg IV 2 hr post-AlbuBChE, 10 min after cocaine
[14] = 1 mg/kg IM, cocaine 1 mg/kg IV 2 hr post-AlbuBChE, 15 min after cocaine
[15] = 1 mg/kg IM, cocaine 1 mg/kg IV 2 hr post-AlbuBChE, 20 min after cocaine
[16] = 1 mg/kg IM, cocaine 1 mg/kg IV 2 hr post-AlbuBChE, 30 min after cocaine
[17] = 1 mg/kg IM, cocaine 1 mg/kg IV 2 hr post-AlbuBChE, 40 min after cocaine
[18] = 1 mg/kg IM, cocaine 1 mg/kg IV 2 hr post-AlbuBChE, 60 min after cocaine
[19] = 1 mg/kg IM, cocaine 1 mg/kg IV 48 hr post-AlbuBChE
[20] = 1 mg/kg IM, cocaine 1 mg/kg IV 48 hr post-AlbuBChE, 5 min after cocaine
[21] = 1 mg/kg IM, cocaine 1 mg/kg IV 48 hr post-AlbuBChE, 10 min after cocaine
[22] = 1 mg/kg IM, cocaine 1 mg/kg IV 48 hr post-AlbuBChE, 15 min after cocaine
[23] = 1 mg/kg IM, cocaine 1 mg/kg IV 48 hr post-AlbuBChE, 20 min after cocaine
[24] = 1 mg/kg IM, cocaine 1 mg/kg IV 48 hr post-AlbuBChE, 30 min after cocaine
[25] = 1 mg/kg IM, cocaine 1 mg/kg IV 48 hr post-AlbuBChE, 40 min after cocaine
[26] = 1 mg/kg IM, cocaine 1 mg/kg IV 48 hr post-AlbuBChE, 60 min after cocaine
[27] = 1 mg/kg IM, cocaine 1 mg/kg IV 96 hr post-AlbuBChE
[28] = 1 mg/kg IM, cocaine 1 mg/kg IV 96 hr post-AlbuBChE, 5 min after cocaine
[29] = 1 mg/kg IM, cocaine 1 mg/kg IV 96 hr post-AlbuBChE, 10 min after cocaine
[30] = 1 mg/kg IM, cocaine 1 mg/kg IV 96 hr post-AlbuBChE, 15 min after cocaine

## AlbuBChE
[1]
  Ecgonine methyl ester plasma concentration (mean): 98 ng/mL
  Mean benzoylecgonine plasma concentration: 61.4 ng/mL
  Mean cocaine plasma concentration: 141 ng/mL
[2]
  Ecgonine methyl ester plasma concentration (mean): 82.9 ng/mL
  Mean benzoylecgonine plasma concentration: 66.2 ng/mL
  Mean cocaine plasma concentration: 64.7 ng/mL
[3]
  Mean benzoylecgonine AUC(0-t): 4089 ng·min/mL
  Mean cocaine AUC % Extrap: 21.6%
  Mean cocaine AUC(0-t): 13693 ng·min/mL
  Mean cocaine AUC(0-∞): 17650 ng·min/mL
  Mean cocaine C0: 549 ng/mL
  Mean cocaine CI: 57.4 mL/min/kg
  Mean cocaine Vss: 2.181 L/kg
  Mean cocaine t½: 29.2 min
[4]
  Ecgonine methyl ester plasma concentration (mean): 20.1 ng/mL
  Mean benzoylecgonine plasma concentration: 53.5 ng/mL
  Mean cocaine plasma concentration: 453 ng/mL
[5]
  Ecgonine methyl ester plasma concentration (mean): 23.1 ng/mL
  Mean benzoylecgonine plasma concentration: 53.3 ng/mL
  Mean cocaine plasma concentration: 379 ng/mL
[6]
  Ecgonine methyl ester plasma concentration (mean): 25.1 ng/mL
  Mean benzoylecgonine plasma concentration: 62.9 ng/mL
  Mean cocaine plasma concentration: 297 ng/mL
[7]
  Ecgonine methyl ester plasma concentration (mean): 28.3 ng/mL
  Mean benzoylecgonine plasma concentration: 63.7 ng/mL
  Mean cocaine plasma concentration: 254 ng/mL
[8]
  Ecgonine methyl ester plasma concentration (mean): 33.9 ng/mL
  Mean benzoylecgonine plasma concentration: 69.8 ng/mL
  Mean cocaine plasma concentration: 189 ng/mL
[9]
  Ecgonine methyl ester plasma concentration (mean): 38.8 ng/mL
  Mean benzoylecgonine plasma concentration: 74.5 ng/mL
  Mean cocaine plasma concentration: 133 ng/mL
[10]
  Ecgonine methyl ester plasma concentration (mean): 41.4 ng/mL
  Mean benzoylecgonine plasma concentration: 80.9 ng/mL
  Mean cocaine plasma concentration: 89.5 ng/mL
[11]
  Mean benzoylecgonine AUC(0-t): 1960 ng·min/mL
  Mean cocaine AUC(0-t): 7880 ng·min/mL
  Mean cocaine C0: 422 ng/mL
[12]
  Ecgonine methyl ester plasma concentration (mean): 235 ng/mL
  Mean benzoylecgonine plasma concentration: 30.1 ng/mL
  Mean cocaine plasma concentration: 308 ng/mL
[13]
  Ecgonine methyl ester plasma concentration (mean): 227 ng/mL
  Mean benzoylecgonine plasma concentration: 33.2 ng/mL
  Mean cocaine plasma concentration: 235 ng/mL
[14]
  Ecgonine methyl ester plasma concentration (mean): 276 ng/mL
  Mean benzoylecgonine plasma concentration: 32.5 ng/mL
  Mean cocaine plasma concentration: 179 ng/mL
[15]
  Ecgonine methyl ester plasma concentration (mean): 301 ng/mL
  Mean benzoylecgonine plasma concentration: 32.5 ng/mL
  Mean cocaine plasma concentration: 73.7 ng/mL
[16]
  Ecgonine methyl ester plasma concentration (mean): 291 ng/mL
  Mean benzoylecgonine plasma concentration: 28.9 ng/mL
  Mean cocaine plasma concentration: 102 ng/mL
[17]
  Ecgonine methyl ester plasma concentration (mean): 202 ng/mL
  Mean benzoylecgonine plasma concentration: 38.4 ng/mL
  Mean cocaine plasma concentration: 96.9 ng/mL
[18]
  Ecgonine methyl ester plasma concentration (mean): 189 ng/mL
  Mean benzoylecgonine plasma concentration: 29.6 ng/mL
  Mean cocaine plasma concentration: 19.7 ng/mL
[19]
  Mean benzoylecgonine AUC(0-t): 1668 ng·min/mL
  Mean cocaine AUC % Extrap: 11.9%
  Mean cocaine AUC(0-t): 5965 ng·min/mL
  Mean cocaine AUC(0-∞): 6764 ng·min/mL
  Mean cocaine C0: 226 ng/mL
  Mean cocaine CI: 150 mL/min/kg
  Mean cocaine Vss: 4.304 L/kg
  Mean cocaine t½: 19.0 min
[20]
  Ecgonine methyl ester plasma concentration (mean): 201 ng/mL
  Mean benzoylecgonine plasma concentration: 24.0 ng/mL
  Mean cocaine plasma concentration: 176 ng/mL
[21]
  Ecgonine methyl ester plasma concentration (mean): 32.2 ng/mL
  Mean benzoylecgonine plasma concentration: 23.7 ng/mL
  Mean cocaine plasma concentration: 140 ng/mL
[22]
  Ecgonine methyl ester plasma concentration (mean): 48.2 ng/mL
  Mean benzoylecgonine plasma concentration: 24.9 ng/mL
  Mean cocaine plasma concentration: 152 ng/mL
[23]
  Ecgonine methyl ester plasma concentration (mean): 56.2 ng/mL
  Mean benzoylecgonine plasma concentration: 26.7 ng/mL
  Mean cocaine plasma concentration: 128 ng/mL
[24]
  Ecgonine methyl ester plasma concentration (mean): 63.8 ng/mL
  Mean benzoylecgonine plasma concentration: 29.8 ng/mL
  Mean cocaine plasma concentration: 87.0 ng/mL
[25]
  Ecgonine methyl ester plasma concentration (mean): 64.9 ng/mL
  Mean benzoylecgonine plasma concentration: 29.6 ng/mL
  Mean cocaine plasma concentration: 62.3 ng/mL
[26]
  Ecgonine methyl ester plasma concentration (mean): 57.3 ng/mL
  Mean benzoylecgonine plasma concentration: 29.8 ng/mL
  Mean cocaine plasma concentration: 29.1 ng/mL
[27]
  Mean benzoylecgonine AUC(0-t): 2741 ng·min/mL
  Mean cocaine AUC % Extrap: 18.4%
  Mean cocaine AUC(0-t): 10044 ng·min/mL
  Mean cocaine AUC(0-∞): 12313 ng·min/mL
  Mean cocaine C0: 288 ng/mL
  Mean cocaine CI: 81.6 mL/min/kg
  Mean cocaine Vss: 2.94 L/kg
  Mean cocaine t½: 23.9 min
[28]
  Ecgonine methyl ester plasma concentration (mean): 138 ng/mL
  Mean benzoylecgonine plasma concentration: 43.9 ng/mL
  Mean cocaine plasma concentration: 265 ng/mL
[29]
  Ecgonine methyl ester plasma concentration (mean): 39.8 ng/mL
  Mean benzoylecgonine plasma concentration: 41.2 ng/mL
  Mean cocaine plasma concentration: 245 ng/mL
[30]
  Ecgonine methyl ester plasma concentration (mean): 42.9 ng/mL
  Mean benzoylecgonine plasma concentration: 40.0 ng/mL
  Mean cocaine plasma concentration: 218 ng/mL
